Test results: patent publication US20260242478A1 (published 2026)
Where no end group is shown, it is not given here.

B1: Phage-3237 (peptide)
peptide: EYHKCIPEWMCAGF
modifications: cysteine pairing not given here; also: fused to phage pIII, fusion site not given here
notes: also called Peptide-180 library clone
B2: Phage-3236 (peptide)
peptide: PLPMCVPAWMCAGF
modifications: cysteine pairing not given here; also: fused to phage pIII, fusion site not given here
notes: as for B1

How the values were obtained:
[1] = biological target: T1, PSMA Fab; assay: clonal phage ELISA; biotinylated PSMA Fab on neutravidin plate, blocking buffer alone; anti-M13 HRP detection;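 also: crude clonal phage supernatants added without washing to wells pretreated with blocking buffer with or without PSMA antigen, short incubation, then washed before detecting bound phage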
T1 construct: also called Anti-PSMA Fab; 006 PSMA Fab
Protocol: (§1) Clonal phage were harvested as crude supernatants and screened via standard ELISAs. […] Prior to the addition of clonal phage. wells were incubated with blocking buffer and PSMA antigen or blocking buffer alone. Without washing or aspirating, clonal phage supernatants were then added to the wells and incubated for a short time. Wells were then washed followed by detection of bound phage using a horse radish conjugated anti-M13 antibody.

[2] = biological target: T1, PSMA Fab; assay: clonal phage ELISA; biotinylated PSMA Fab on neutravidin plate, wells first incubated with PSMA antigen as competitor; anti-M13 HRP detection
Protocol: as §1

[3] = biological target: T2, PSMA Fab; assay: clonal phage ELISA on biotinylated PSMA Fab captured on neutravidin plates, anti-M13 HRP detection;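 also: crude clonal phage supernatants tested, before phage were added, wells were pretreated with PSMA antigen in blocking buffer or with blocking buffer only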
T2 construct: In the phage ELISA the PSMA Fab was biotinylated and captured on neutravidin coated plates; also called Anti-PSMA Fab; 006 PSMA Fab
Protocol: as §1

[4] = biological target: T3, PSMA Fab; assay: phage ELISA, clonal phage on biotinylated PSMA Fab captured on neutravidin plate, anti-M13 HRP detection;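 also: crude clonal phage supernatants added to wells preincubated with PSMA antigen in blocking buffer or with blocking buffer only, giving a competition and a no-competitor control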
T3 construct: In the phage ELISA the PSMA Fab was biotinylated and captured on neutravidin coated plates; also called anti-PSMA Fab; 006 PSMA Fab
Protocol: as §1

[5] = biological target: T3, PSMA Fab; assay: phage ELISA, clonal phage on captured PSMA Fab pre-incubated with PSMA antigen as competitor, anti-M13 HRP detection
Protocol: as §1

[6] = biological target: T4, PSMA Fab (biotinylated (site not stated)); assay: clonal phage ELISA; biotinylated PSMA Fab on neutravidin plate, blocking buffer alone; anti-M13 HRP detection;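 also: crude clonal phage supernatants added without washing to wells pretreated with blocking buffer with or without PSMA antigen, short incubation, then washed before detecting bound phage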
T4 construct: The panning ELISA names only 'biotinylated PSMA Fab' captured on neutravidin coated plates; also called Anti-PSMA Fab; 006 PSMA Fab

[7] = biological target: T4, PSMA Fab; assay: clonal phage ELISA; biotinylated PSMA Fab on neutravidin plate, wells pre-incubated with PSMA antigen as competitor; anti-M13 HRP detection;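 also: crude clonal phage supernatants added to antigen-treated wells without a wash, incubated briefly, then bound phage read out via horse radish–conjugated anti-M13 antibody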
Protocol: as §1

Binder	Phage binding ELISA signal, Anti-PSMA Fab [1]	phage binding ELISA signal, Anti-PSMA Fab in the presence of PSMA [2]	Phage binding ELISA signal, Anti-PSMA Fab [3]	Phage binding ELISA signal, Anti-PSMA Fab [4]	Phage binding ELISA signal, Anti-PSMA Fab in presence of PSMA [5]	also measured
EGTWCRPAWMCDGF [Phage-3473]	1.73	0.0819				
EIVKCVPPWMCSGI [Phage-3469]	1.73	0.0727				
MLLQCKPSWMCAGF [Phage-3302]			1.87			
ETFKCVPEWMCTGL [Phage-3298]			1.88			
AALRCVPTWMCEGF [Phage-3404]				1.79	0.0793	
TEILCVPEWMCIGL [Phage-3392]				1.8	0.0705	
FERLCIPEWMCSAF [Phage-3400]				1.8	0.102	
TQALCKPAWMCKGF [Phage-3399]				1.8	0.0703	
TNPMCVPEWMCYGF [Phage-3468]	1.73	0.0628				
VDQVCIPDWMCNGF [Phage-3470]	1.73	0.0771				
WEARCQPTWMCTGF (cysteine pairing not given here; also: fused to pIII of bacteriophage) [Phage-3467]	1.73	0.0667				
EMFRCTPEWMCAGL (cysteine pairing not given here; also: fused to pIII of bacteriophage) [Phage-3307]			1.87			
HSALCIPSWMCQGF [Phage-3305]			1.87			
LERACKPMWMCEGF [Phage-3474]	1.73	0.0863				
FGIYCVPEWMCTGL [Phage-3397]				1.8	0.0891	
HDAMCKPAWMCAGF [Phage-3299]			1.88			
MPPVCIPRWMCEGF [Phage-3301]			1.88			
IELMCRPLWMCMGF [Phage-3398]				1.8	0.0966	
B1						Phage binding ELISA signal, Anti-PSMA Fab [6]: 1.94; Phage binding ELISA signal, Anti-PSMA Fab with PSMA antigen [7]: 0.0924
ITVICKPAWMCEFL [Phage-3394]				1.8	0.0613	
LEAACRPMWMCLGF (cysteine pairing not given here; also: fused to pIII of bacteriophage) [Phage-3466]	1.73	0.0664				

Binder	Phage binding ELISA signal, Anti-PSMA Fab [1]	phage binding ELISA signal, Anti-PSMA Fab in the presence of PSMA [2]	Phage binding ELISA signal, Anti-PSMA Fab [3]	Phage binding ELISA signal, Anti-PSMA Fab [4]	Phage binding ELISA signal, Anti-PSMA Fab in presence of PSMA [5]	also measured
ASVLCVPAWMCSGF [Phage-3395]				1.8	0.0808	
EIKHCIPEWMCSGF (cysteine pairing not given here; also: fused to pIII of bacteriophage) [Phage-3464]	1.74	0.104				
WEHRCTPEWMCTGF (also called Peptide-180 library clone) [Phage-3238]						Phage binding ELISA signal, Anti-PSMA Fab [6]: 1.94; Phage binding ELISA signal, Anti-PSMA Fab with PSMA antigen [7]: 0.0937
EVLLCKPEWMCTGF (cysteine pairing not given here; also: fused to pIII of bacteriophage) [Phage-3463]	1.74	0.0669				
QEVWCRPIWMCEGF [Phage-3472]	1.73	0.109				
EDRICEPDWMCAGF [Phage-3475]	1.73	0.105				
SVPSCVPPWMCIGF [Phage-3471]	1.73	0.0613				
B2						Phage binding ELISA signal, Anti-PSMA Fab [6]: 1.95; Phage binding ELISA signal, Anti-PSMA Fab with PSMA antigen [7]: 0.133
VAVMCRPAWMCYGF [Phage-3297]			1.88			
VDRFCEPIWMCIGF [Phage-3306]			1.87			
ENHYCRPAWMCNGF [Phage-3393]				1.8	0.106	
VVIQCQPAWMCDGF [Phage-3296]			1.88			
ETHFCKPKWMCVGF (cysteine pairing not given here; also: fused to pIII of bacteriophage) [Phage-3465]	1.74	0.0927				
GFPWCEPQWMCIGF [Phage-3396]				1.8	0.114	
GWPVCVPPWMCDGF [Phage-3303]			1.87			
VESMCKPAWMCIGF [Phage-3300]			1.88			
EHYACKPEWMCAGF (cysteine pairing not given here; also: fused to pIII of bacteriophage) [Phage-3304]			1.87			
FRDYCVPPWMCVGM [Phage-3401]				1.8	0.0791	
QFLVCKPSWMCNGF [Phage-3402]				1.8	0.0882	
TEVMCRPLWMCAGF [Phage-3295]			1.89			
VERYCVPQWMCDGF [Phage-3403]				1.8	0.117	
